Assays:
[1] = biological target: BG505 SOSIP.664 trimer (HIV-1 strain BG505); experiment: AUC
[2] = biological target: BG505 SOSIP.664 201C-433C (HIV-1 strain BG505); experiment: AUC

| Substance | stoichiometry N (CD4 per trimer) [1] | stoichiometry N (CD4 per trimer) [2] |
| --- | --- | --- |
| 2-domain soluble CD4 (CD4 D1D2) (domain or fragment) | 3 |  |
| 2-domain soluble CD4 (domain or fragment) |  | 1 |
| 4-domain CD4 (domain or fragment) | 2 | 1 |
| 4-domain soluble CD4 (CD4 D1D4) (domain or fragment) | 3 |  |
